# Patent publication US20080113421A1, “Stabilizing proteins against denaturation and inactivation by charged detergents using chemical modifications, including modifications that increase net charge” (President and Fellows of Harvard College, priority 2006, published 2008)
# Legend:
# Format in all cases: physicochemical
# [1] = Critical micelle concentration by isothermal titration calorimetry; conditions: 25 mM Tris-192 mM Gly, pH 8.4 buffer
# Method: Critical micelle concentration of SDS in Tris-Gly buffer was determined as follows. The critical micelle concentration (CMC) of SDS in 25 mM Tris-192 mM Gly, pH 8.4 buffer was 4.3 mM, as measured by isothermal titration calorimetry. In this example, the kinetics of denaturation and renaturation of proteins in concentrations of SDS below the CMC were studied. The difference in kinetics of denaturation of the two proteins may also occur in concentrations of SDS above the CMC.
# [2] = Net charge of protein (capillary electrophoresis, charge ladder)
# Method: BCA-Ac18 was synthesized by reacting the lysine residues of BCA with acetic anhydride in 100 mM HEPES buffer, pH 8.2. The N-terminus of BCA was acetylated posttranslationally. The final product contained ˜90% of BCA-Ac18 and 10% of BCA-Ac17, as determined by peak areas in an electropherogram from separation by capillary electrophoresis. The net charge of BCA in Tris-Gly buffer was about −3, and the net charge of BCA-Ac18 was about −19. It is believed that the difference in charge between BCA and BCA-Ac18 was less than 18 full units of charge due to charge regulation-adjustment of protonation states of other ionizable groups on the protein to counteract the increasing electrostatic potential on its surface.
# For any charge ladder of BCA, as the number of modifications (n) increases, the total charge on the protein becomes more negative, and the surface of the protein becomes more hydrophobic due to conversion of NH3^+ groups to NHCOR groups. Native BCA has a charge of ˜−2.9 at pH 8. The charge on the early rungs of the ladder increased linearly with the number of acylations; each rung adds an additional charge of ˜−0.9. Therefore, for example, BCA-Ac8 has a charge of ˜−10. The later rungs of the ladder may differ by <0.9 units of charge. Using the Linderstrom-Lang model of cooperativity in proton binding, the charge on BCA-Ac18 was calculated to be −19. The mobility of a given rung of BCA-Acn may have nearly the same mobility as the corresponding rung of BCA-Hexn. Thus, the charges of the BCA-Hexn may be indistinguishable from those of BCA-Acn for a given rung number. (Small deviations in mobility between later rungs of the two ladders may be due either to a change in charge or a change in drag between the two ladders. It can be assumed that any differences in the mobilities are due to additional drag from the hexanoyl groups relative to the acetyl groups.
# [3] = Refolding after 1 week incubation at intermediate SDS concentrations (aggregation test)
# Method: Aggregation was tested by renaturing the proteins from a denatured state at 10 mM SDS to 0.1 mM SDS, but through an incubation step at intermediate concentrations of SDS, instead of renaturing by rapid dilution from 10 mM SDS to 0.1 mM SDS directly (i.e., 10 mM SDS→2.5 mM SDS→0.1 mM SDS instead of 10 mM SDS→0.1 mM SDS). For incubation, concentrations of SDS were chosen in which aggregation was believed to occur on a similar or shorter time scale as refolding. The protein-SDS complex was diluted from 10 mM SDS to 2.5-0.7 mM SDS, the proteins were incubated for 1 week at those concentrations, and the samples further diluted to 0.1 mM SDS to initiate fast refolding.
# The fluorescence signal from DNSA was normalized to that of refolded protein by rapid dilution from 10 to 0.1 mM SDS.
# [4] = Unfolding (denaturation) of protein in SDS in Tris-Gly buffer, monitored by DNSA fluorescence
# Method: Monitoring unfolding of BCA and BCA-Ac18 was performed as follows. The proteins (200 nM) were incubated in different concentrations of SDS in Tris-Gly buffer. A 100 microliter aliquot of protein-SDS solution was mixed with 100 microliters of DNSA solution (30 micromolar) with the same concentration of SDS, and measured the intensity of fluorescence (Perkin-Elmer LS50B spectrometer, λex=280 nm, λem=460 nm) as a function of time. The denaturation of BCA was continuously monitored in concentrations of SDS above 4 mM. The rate constants were determined for denaturation by fitting the intensity vs. time data to FU=FUmaxe^−kt+FUmin. Unfolding experiments at 37° C. were performed similarly, with samples stored in a dry bath incubator (Fisher Scientific).
# The kinetics of unfolding were determined as follows. The rates of denaturation of BCA and BCA-Ac18 were measured by incubating the protein (200 nM) in solutions of different concentrations of SDS. Immediately prior to the measurement, an aliquot of solution containing protein and SDS was mixed with a solution containing DNSA and the same concentration of SDS; this protocol minimized the possibility that DNSA might stabilize the native conformation of the protein, and influence the rate of its denaturation. When BCA was denatured in concentrations of SDS of 4 mM and higher, DNSA was added to the original, denaturing solution because the rate of denaturation was too fast to follow with manual mixing of aliquots of protein and DNSA. It was observed that DNSA, when present with the protein in the denaturing solution, reduced the rates of denaturation by factors of about 2-10.
# FIG. 1 plots the fluorescence of DNSA, normalized to the signal at t=0, as a function of time of incubation of samples of BCA and BCA-Ac18 in various concentrations of SDS. The decrease in the intensity of fluorescence of DNSA, and thus in the amount of folded protein, followed first-order kinetics. Denaturation of proteins with surfactants probably proceeds through intermediates, but when using a marker that is specific to the folded active site of carbonic anhydrase, transitions beyond the initial unfolding of the three-dimensional structure of the protein were not detected.
# The tables list the half-lives (t1/2) for denaturation of BCA and BCA-Ac18 at several concentrations of SDS. The denaturation of BCA at 4 mM occurred very rapidly, and data are not shown to avoid overlap with data at 3.5 mM. The error bars represent the difference between the average and the largest and smallest values measured from at least three replicate measurements.
# [5] = Refolding of SDS-denatured protein by dilution or removal of SDS, monitored by DNSA fluorescence
# Method: Monitoring refolding of BCA and BCA-Ac18 was performed as follows. The proteins (10 micomolar) were denatured in 10 mM SDS for 24 h. […] Refolding was initiated by dilution of an aliquot of the denatured sample to a final concentration of protein of 200 nM, with varying concentrations of SDS in the buffer. Immediately prior to the measurement, an aliquot of renaturing protein was mixed with an equal aliquot of DNSA. The rate constants for renaturation were determined by fitting the data to FU=FUmax(1-e^−kt)+FUmin. The refolding experiments at 37° C. were performed similarly.
# The kinetics of refolding were determined as follows. The rates of refolding of BCA and BCA-Ac18 from the fully denatured states (in 10 mM SDS) were measured by dilution of the solutions into buffers containing concentrations of SDS from 0.1 to 2 mM, using the fluorescence of DNSA as a marker for the appearance of the folded state. […] As in denaturation studies, an aliquot of solution of the protein and SDS was mixed with an equal aliquot of solution of DNSA with the same amount of SDS immediately prior to the measurement to eliminate the possibility of DNSA influencing refolding kinetics. The buffer also contained 100 micromolar ZnSO4 to ensure that the folded protein could incorporate a Zn(II) cofactor.
# The raw data emphasize the decrease in the yield of folded protein with increasing concentration of SDS. […] The half-lives (t1/2) for renaturation were determined, where possible, by fitting the data to FU=FUmax(1-exp(−t/t1/2))+FUmin; the fits are shown (solid lines). The tables provide data for refolding in 0.1 and 0.4 mM SDS as well as for concentrations on the graphs for comparison. […] The error bars represent the difference between the average and the largest and smallest values measured from at least three replicate measurements.
# [6] = Denaturation of BCA charge ladders in 3 mM SDS (dialysis cassette) followed by capillary electrophoresis, with transition-state model fit; conditions: for b coefficient of fit ΔG‡=a+bn+cn^2: 3 mM SDS; for Chydro (hydrophobic contribution to ΔΔG‡): per acylation
# Method: Denaturation experiments were performed as follows. A charge ladder of BCA (BCA-Acn or BCA-Hexn, 1 mL of 100 micromolar total protein in Tris-Gly buffer) was placed in a dialysis cassette (MW cutoff of 10 kDa). The dialysis cassette was placed in a 1 L bath of 3 mM SDS in Tris-Gly buffer at room temperature. The buffer was changed every 24 h. At regular intervals of time (approximately every half-hour), 100 microliters of the protein solution was removed from the dialysis cassette; ˜7 microliters of that aliquot was diluted 10-fold and the absorbance of the diluted sample at 280 nm (ε280,BcA=57,000 M^−1 cm^−1, the absorption cross section can be assumed to be is unchanged by acylation) was measured to determine the total protein concentration. The aliquot was diluted because the absorbance of the 100 micromolar solution was too high to be read accurately by the ultraviolet spectrometer. This diluted aliquot was discarded. The remainder of the solution was then run on CE. The protein solution, except for the portion diluted for ultraviolet measurement, was returned to the dialysis cassette; the aliquot was outside of the dialysis cassette for ˜5 min.
# Capillary electrophoresis experiments were carried out in a Beckman (Fullerton, Calif.) PACE-MDQ system, using a capillary of inner diameter of 50 micrometers of total length of 110.2 cm, 100 cm to the detector. Tris-Gly in D2O was used as the running buffer, and the applied voltage was 30 kV. D2O was used in place of H2O for the electrophoresis buffer because the viscosity of D2O is higher than that of H2O and the higher viscosity minimizes diffusion. Samples were injected using pressure (20 psi) for 30 s. Each sample contained 0.65 mM dimethylformamide as an electrically neutral marker for electroosmotic flow.
# The CMC of SDS in the Tris-Gly buffer used in this example was 4.3 mM. 3 mM SDS was chosen for these experiments because this concentration of SDS denatured BCA in an interval of time that was convenient for experimental work using CE. In addition, this concentration of SDS was close to the concentration often used in SDS-PAGE (0.1% or 3.5 mM). 1 mL of a solution of ˜100 micromolar of a charge ladder of BCA, dissolved in Tris-Gly buffer, was placed into a dialysis cassette (molecular weight cutoff of 10 kDa) and the cassette placed in 1 L of Tris-Gly buffer containing 3 mM SDS. The bath was kept at room temperature (˜22° C.) for the duration of the experiment.
# At regular intervals of time (approximately every half hour), 100-microliter aliquots of the solutions containing the charge ladder of BCA were removed from the cassette in a bath of 3 mM SDS in Tris-Gly buffer, the total protein concentration in the aliquot was measured using absorbance at 280 nm, and a portion (˜10 nL) of the aliquot injected onto the CE. The unused portions of the aliquots were then returned to the cassette.
# Residence time in the detection volume was determined as follows. […] If two proteins with the same absorptivity were present in a sample in equal concentrations, the protein of lower velocity would have a larger measured peak area than the protein of higher velocity. To correct for this experimental bias, the area of each peak was multiplied-by the velocity of the protein (Acorr=Ameasured×LD/tD), where LD is the length of the capillary from the end (where injection occurs) to the detector (100 cm in all of these experiments) and tD is the time it takes for the rung to reach the detector.
# Initial differences in concentrations of each rung were as follows. The areas of each of the rungs in the charge ladder were not all equal before denaturation. To measure the fraction of each rung that has denatured at each time, the velocity-corrected area of each rung in the sample was divided by the velocity-corrected area of that rung in the charge ladder run in the absence of SDS.
# A comparison of the rates of denaturation follows. […]
compound,measurement,setting,value
"CCCCCCCCCCCCOS(=O)(=O)[O-].[Na+] [SDS, sodium dodecyl sulfate]",critical micelle concentration (CMC),[1],4.3 mM
BCA-Ac8: rung of the acetyl charge ladder of BCA with 8 acetylated lysines (regioisomers),charge of rung from number of acylations,[2]; each rung adds ~−0.9,~−10
BCA-Ac18: charge-modified derivative of BCA having all 18 lysine groups acetylated,"yield of refolded protein after incubation, relative to BCA","[3]; 1 week incubation at intermediate SDS, then 0.1 mM SDS",higher than the yields of BCA
same,t1/2 for refolding,"[3]; denatured in 10 mM SDS, incubated 1 week at intermediate SDS, diluted into 0.1 mM SDS",0.292 ± 0.0233 h
same,t1/2 for denaturation,"[4]; 4 mM SDS, Tris-Gly buffer",30 h
same,"difference in denaturation time, BCA-Ac18 vs BCA (factor)",[4]; 4 mM and 10 mM SDS,~10^4
same,t1/2 for denaturation,"[4]; 10 mM SDS, Tris-Gly buffer",2.67 h
same,difference in kinetics of denaturation of BCA and BCA-Ac18 (factor),[4]; SDS at and above 2.5 mM,10^1-10^4
same,denaturation in low concentrations of SDS,"[4]; SDS below 2 mM, long (~1 month) periods of time",no denaturation was observed
same,concentration of SDS at which the protein denatures,"[4]; Tris-Gly buffer, CMC 4.3 mM",≥ 2500 µM
same,"change in rates of denaturation with SDS, BCA vs peracetylated BCA",[4]; change in charge of the protein by a factor of 5,−3 orders of magnitude
same,"difference in activation energy for denaturation, BCA-Ac18 vs BCA",[4]; from the factor of about 10^4 in rates,5 kcal/mol
same,net charge,[2]; Tris-Gly buffer,about −19
same,concentration of SDS at which no refolded protein was observed,[5]; dilution from 10 mM SDS,≥ 1600 µM
same,rate of refolding relative to BCA,[5]; solutions with the same concentration of SDS,faster than refolding of BCA
same,range of SDS concentrations in which protein neither refolds nor unfolds at an observable rate (window),[5]; time scales of a month,1.6 to 2 mM
same,refolding rate (given as time) after denaturation with SDS,[5]; upon complete removal of the SDS,21 ± 2 min
BCA-Acn: charge ladder of BCA prepared with acetic anhydride,b coefficient of fit ΔG‡=a+bn+cn^2,[6],0.50±0.01 kcal/mol of protein
same,effects of charge on denaturation with SDS relative to effects of hydrophobicity,[6]; model of charge ladder data,~5 fold
same,Chydro (hydrophobic contribution to ΔΔG‡),[6],0.085 kcal/mol
BCA-Hexn: charge ladder of BCA prepared with hexanoic anhydride,b coefficient of fit ΔG‡=a+bn+cn^2,[6],0.33±0.01 kcal/mol of protein
same,Chydro (hydrophobic contribution to ΔΔG‡),[6],0.26 kcal/mol
